Results: publication PMC3829608 (Molecular cancer therapeutics, 2012)
Entries after “also recorded” stand apart in the source; their conditions may differ.

Tests used:
[1] = system: U87-MG orthotopic brain tumors; assay: Live animal FMT imaging of orthotopic U87-MG brain tumors; assay type: in vivo, mice; settings: representative FMT 3-dimensional reconstruction, matching ROIs, 1 nmol/g
[2] = as above; assay type: in vivo, mice; settings: mouse, in vivo, iv, 1 nmol/g
[3] = Live animal FMT imaging of orthotopic Gli36Δ5 brain tumors; assay type: in vivo, mice; settings: mouse, in vivo, iv, 1 nmol/g
[4] = system: Gli36Δ5 orthotopic brain tumors; assay: as above; assay type: in vivo, mice; settings: representative FMT 3-dimensional reconstruction, matching ROIs, 1 nmol/g
A431 cells = assay: Uptake in A431 cells with EGF stimulation; assay type: cell-based, human; settings: A431 cells in the presence of the EGF ligand
EGFR [5] = target: T1, EGFR (Homo sapiens, UniProt P00533); assay: Saturation binding assay on Gli36Δ5 cells
EGFR [6] = target: T1, EGFR; settings: radioligand binding assays; cited from earlier work

CC[C@H](C)[C@H](NC(=O)[C@@H](NC(=O)[C@H](CC(N)=O)NC(=O)[C@H](CCC(N)=O)NC(=O)[C@@H]1CCCN1C(=O)[C@@H](NC(=O)[C@H](Cc1ccc(O)cc1)NC(=O)CNC(=O)[C@H](Cc1ccc(O)cc1)NC(=O)[C@H](Cc1c[nH]c2ccccc12)NC(=O)[C@H](Cc1c[nH]cn1)NC(=O)[C@H](Cc1ccc(O)cc1)NC(=O)COCCOCCNC(=O)CCCCCN1C(=CC=CC=CC2=[N+](CC)c3ccc4c(S(=O)(=O)[O-])cc(S(=O)(=O)O)cc4c3C2(C)C)C(C)(C)c2c1ccc1c(S(=O)(=O)O)cc(S(=O)(=O)O)cc21)[C@@H](C)O)C(C)C)C(N)=O [Compound 2]
Amount of fluorescence in ROI, U87-MG [1]: 1,608 nmol/L | tissue uptake dose at 1 h [2]: 0.27 %ID | tissue uptake dose at 1 h [3]: 1.1 %ID | Amount of fluorescence in ROI, Gli36Δ5 [4]: 9,271 nmol/L | Uptake in A431 cells on stimulation with EGF (A431 cells): increasing fluorescence; also recorded: increased the level of uptake

Cy5.5-(AEEA)2-YHWYGYTPQNVI-amide [Compound 3]
Affinity for the cells (in words) (EGFR [5]): micromolar range

Cy5.5-(AEEA)3-YHWYGYTPQNVI-amide [Compound 4]
Affinity for the cells (in words) (EGFR [5]): micromolar range

Cy5.5-YHWYGYTPQNVI-amide [Compound 1]
Affinity for the cells (in words) (EGFR [5]): micromolar range

YHWYGYTPQNVI [GE11]
Binding affinity for EGFR (in words) (EGFR [6]): nanomolar range
